This is an account of results in the Human Domainome abundance scans (Beltran et al. 2025).

± gives the uncertainty stated by the source.

The chains are these.
B1: 1-phosphatidylinositol 4,5-bisphosphate phosphodiesterase gamma-2, residues 772 to 827; numbered along this chain, P16885 (parent)
chain: RTVKALYDYKAKRSDELSFCRGALIHNVSKEPGGWWKGDYGTRIQQYFPSNYVEDI

In this series the parent is B1. As to the kind of experiment: abundance fitness (aPCA) (normalised: wild type 0, dead -1); higher = more abundant; growth selection in yeast, the domain comes from the species named. To be noted: Homo sapiens.
On to RTVKALYDYKAKRSDELSFCRGALIHNVSKEPGGWWKWDYGTRIQQYFPSNYVEDI [G38W], for which the abundance fitness was -0.803 ± 0.19.

On to RTVKALYDYKAKRSDELSFCRGALIHNVSKEPGGWWKIDYGTRIQQYFPSNYVEDI [G38I], for which the abundance fitness was -0.765 ± 0.47.

For the variant RTVKALYDYKAKRSDELSFCRGALIHNVSKEPGGWWKTDYGTRIQQYFPSNYVEDI [G38T], the abundance fitness was -0.821 ± 0.47.

For RTVKALYDYKAKRSDELSFCRGALIHNVSKEPGGWWKADYGTRIQQYFPSNYVEDI [G38A], the abundance fitness is -0.83 ± 0.27.

RTVKALYDYKAKRSDELSFCRGALIHNVSKEPGGWWKKDYGTRIQQYFPSNYVEDI [G38K]: the abundance fitness was -1.01 ± 0.44. Take RTVKALYDYKAKRSDELSFCRGALIHNVSKEPGGWWKEDYGTRIQQYFPSNYVEDI [G38E]: the abundance fitness is -0.595 ± 0.17. Under RTVKALYDYKAKRSDELSFCRGALIHNVSKEPGGWWKLDYGTRIQQYFPSNYVEDI [G38L] stands -1.11 ± 0.2; under RTVKALYDYKAKRSDELSFCRGALIHNVSKEPGGWWKSDYGTRIQQYFPSNYVEDI [G38S], -1 ± 0.18. RTVKALYDYKAKRSDELSFCRGALIHNVSKEPGGWWKVDYGTRIQQYFPSNYVEDI [G38V]: the abundance fitness is -0.851 ± 0.2. Under RTVKALYDYKAKRSDELSFCRGALIHNVSKEPGGWWKRDYGTRIQQYFPSNYVEDI [G38R] stands -0.959 ± 0.14; under RTVKALYDYKAKRSDELSFCRGALIHNVSKEPGGWWKGDYITRIQQYFPSNYVEDI [G41I], -0.566 ± 0.37.

As to RTVKALYDYKAKRSDELSFCRGALIHNVSKEPGGWWKGDYCTRIQQYFPSNYVEDI [G41C], the abundance fitness was -0.581 ± 0.21. Under RTVKALYDYKAKRSDELSFCRGALIHNVSKEPGGWWKGDYQTRIQQYFPSNYVEDI [G41Q] stands -0.217 ± 0.1; under RTVKALYDYKAKRSDELSFCRGALIHNVSKEPGGWWKGDYETRIQQYFPSNYVEDI [G41E], -0.117 ± 0.068; under RTVKALYDYKAKRSDELSFCRGALIHNVSKEPGGWWKGDYRTRIQQYFPSNYVEDI [G41R], -0.234 ± 0.044. For RTVKALYDYKAKRSDELSFCRGALIHNVSKEPGGWWKGDYATRIQQYFPSNYVEDI [G41A] the value was -0.273 ± 0.061. For RTVKALYDYKAKRSDELSFCRGALIHNVSKEPGGWWKGDYDTRIQQYFPSNYVEDI [G41D] the value was 0.069 ± 0.077; for RTVKALYDYKAKRSDELSFCRGALIHNVSKEPGGWWKGDYPTRIQQYFPSNYVEDI [G41P], -1.01 ± 0.13; for RTVKALYDYKAKRSDELSFCRGALIHNVSKEPGGWWKGDYMTRIQQYFPSNYVEDI [G41M], -0.268 ± 0.12. As to RTVKALYDYKAKRSDELSFCRGALIHNVSKEPGGWWKGDYKTRIQQYFPSNYVEDI [G41K], the abundance fitness was -0.012 ± 0.08. For RTVKALYDYKAKRSDELSFCRGALIHNVSKEPGGWWKGDYHTRIQQYFPSNYVEDI [G41H] the value was -0.151 ± 0.38; for RTVKALYDYKAKRSDELSFCRGALIHNVSKEPGGWWKGDYFTRIQQYFPSNYVEDI [G41F], -0.54 ± 0.23; for RTVKALYDYKAKRSDELSFCRGALIHNVSKEPGGWWWGDYGTRIQQYFPSNYVEDI [K37W], -0.908 ± 0.22. RTVKALYDYKAKRSDELSFCRGALIHNVSKEPGGWWLGDYGTRIQQYFPSNYVEDI [K37L]: the abundance fitness is -0.276 ± 0.077. For RTVKALYDYKAKRSDELSFCRGALIHNVSKEPGGWWGGDYGTRIQQYFPSNYVEDI [K37G], the abundance fitness is -0.887 ± 0.3. Under RTVKALYDYKAKRSDELSFCRGALIHNVSKEPGGWWMGDYGTRIQQYFPSNYVEDI [K37M] stands -0.548 ± 0.15; under RTVKALYDYKAKRSDELSFCRGALIHNVSKEPGGWWPGDYGTRIQQYFPSNYVEDI [K37P], -0.617 ± 0.19. Turning to RTVKALYDYKAKRSDELSFCRGALIHNVSKEPGGWWQGDYGTRIQQYFPSNYVEDI [K37Q], the abundance fitness was -0.407 ± 0.15.

As for RTVKALYDYKAKRSDELSFCRGALIHNVSKEPGGWWDGDYGTRIQQYFPSNYVEDI [K37D], the abundance fitness is -0.486 ± 0.49. Under RTVKALYDYKAKRSDELSFCRGALIHNVSKEPGGWWFGDYGTRIQQYFPSNYVEDI [K37F] stands -0.371 ± 0.21; under RTVKALYDYKAKRSDELSFCRGALIHNVSKEPGGWWTGDYGTRIQQYFPSNYVEDI [K37T], -0.32 ± 0.14; under RTVKALYDYKAKRSDELSFCRGALIHNVSKEPGGWWYGDYGTRIQQYFPSNYVEDI [K37Y], -0.301 ± 0.39. For RTVKALYDYKAKRSDELSFCRGALIHNVSKEPGGWWRGDYGTRIQQYFPSNYVEDI [K37R] the value was -0.091 ± 0.067; for RTVKALYDYKAKRSDELSFCRGALIHNVSKEPGGWWVGDYGTRIQQYFPSNYVEDI [K37V], -0.213 ± 0.048; for RTVKALYDYKAKRSDELSFCRGALIHNVSKEPGGWWCGDYGTRIQQYFPSNYVEDI [K37C], -0.318 ± 0.1. Under RTVKALYDYKAKRSDELSFCRGALIHNVSKEPGGWWAGDYGTRIQQYFPSNYVEDI [K37A] stands -0.622 ± 0.082. Turning to RTVKALYDYKAKRSDELSFCRGALIHNVSKEPGGWWEGDYGTRIQQYFPSNYVEDI [K37E], the abundance fitness was -0.757 ± 0.49. For RTVKALYDYKAKRSDELSFCRGALIHNVSKEPGGWWIGDYGTRIQQYFPSNYVEDI [K37I] the value was -0.301 ± 0.17; for RTVKALYDYKAKRSDELSFCRGALIHNVSKEPGGWGKGDYGTRIQQYFPSNYVEDI [W36G], -0.58 ± 0.12. Under RTVKALYDYKAKRSDELSFCRGALIHNVSKEPGGWAKGDYGTRIQQYFPSNYVEDI [W36A] stands -0.214 ± 0.085; under RTVKALYDYKAKRSDELSFCRGALIHNVSKEPGGWMKGDYGTRIQQYFPSNYVEDI [W36M], -0.108 ± 0.12; under RTVKALYDYKAKRSDELSFCRGALIHNVSKEPGGWQKGDYGTRIQQYFPSNYVEDI [W36Q], -0.839 ± 0.29. For RTVKALYDYKAKRSDELSFCRGALIHNVSKEPGGWTKGDYGTRIQQYFPSNYVEDI [W36T] the value was -0.89 ± 0.31; for RTVKALYDYKAKRSDELSFCRGALIHNVSKEPGGWKKGDYGTRIQQYFPSNYVEDI [W36K], -0.705 ± 0.27; for RTVKALYDYKAKRSDELSFCRGALIHNVSKEPGGWRKGDYGTRIQQYFPSNYVEDI [W36R], -0.724 ± 0.081.

For the variant RTVKALYDYKAKRSDELSFCRGALIHNVSKEPGGWFKGDYGTRIQQYFPSNYVEDI [W36F], the abundance fitness is -0.308 ± 0.24.

In the case of RTVKALYDYKAKRSDELSFCRGALIHNVSKEPGGWEKGDYGTRIQQYFPSNYVEDI [W36E], the abundance fitness was -0.809 ± 0.33.
